According to PMC11098746 (2024):

target: Circumsporozoite protein (CSP) (Plasmodium falciparum (isolate 3D7), UniProt Q7K740); assay: AVEXIS screen signal:noise (double-corrected)
Sequence (Q7K740 19-374): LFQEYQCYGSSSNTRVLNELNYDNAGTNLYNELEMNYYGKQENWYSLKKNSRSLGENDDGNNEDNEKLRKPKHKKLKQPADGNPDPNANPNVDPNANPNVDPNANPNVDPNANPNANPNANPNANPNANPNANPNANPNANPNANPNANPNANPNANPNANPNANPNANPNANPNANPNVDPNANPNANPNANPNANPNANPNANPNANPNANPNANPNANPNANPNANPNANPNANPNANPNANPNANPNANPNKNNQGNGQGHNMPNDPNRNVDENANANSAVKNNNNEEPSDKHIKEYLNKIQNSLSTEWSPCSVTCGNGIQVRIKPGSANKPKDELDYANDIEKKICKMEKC

Binder	binding score
ADP360 (protein, bait human Fc-tagged dimer) MGAARGSPARPRRLPLLSVLLLPLLGGTQTAIVFIKQPSSQDALQGRRALLRCEVEAPGPVHVYWLLDGAPVQDTERRFAQGSSLSFAAVDRLQDSGTFQCVARDDVTGEEARSANASFNIKWIEAGPVVLKHPASEAEIQPQTQVTLRCHIDGHPRPTYQWFRDGTPLSDGQSNHTVSSKERNLTLRPAGPEHSGLYSCCAHSAFGQACSSQNFTLSIADESFARVVLAPQDVVVARYEEAMFHCQFSAQPPPSLQWLFEDETPITNRSRPPHLRRATVFANGSLLLTQVRPRNAGIYRCIGQGQRGPPIILEATLHLAEIEDMPLFEPRVFTAGSEERVTCLPPKGLPEPSVWWEHAGVRLPTHGRVYQKGHELVLANIAESDAGVYTCHAANLAGQRRQDVNITVATVPSWLKKPQDSQLEEGKPGYLDCLTQATPKPTVVWYRNQMLISEDSRFEVFKNGTLRINSVEVYDGTWYRCMSSTPAGSIEAQARVQVLEKLKFTPPPQPQQCMEFDKEATVPCSATGREKPTIKWERADGSSLPEWVTDNAGTLHFARVTRDDAGNYTCIASNGPQGQIRAHVQLTVAVFITFKVEPERTTVYQGHTALLQCEAQGDPKPLIQWKGKDRILDPTKLGPRMHIFQNGSLVIHDVAPEDSGRYTCIAGNSCNIKHTEAPLYVVDKPVPEESEGPGSPPP	0.739
ADP350 (protein, bait human Fc-tagged dimer) MAAAGRLPSSWALFSPLLAGLALLGVGPVPARALHNVTAELFGAEAWGTLAAFGDLNSDKQTDLFVLRERNDLIVFLADQNAPYFKPKVKVSFKNHSALITSVVPGDYDGDSQMDVLLTYLPKNYAKSELGAVIFWGQNQTLDPNNMTILNRTFQDEPLIMDFNGDLIPDIFGITNESNQPQILLGGNLSWHPALTTTSKMRIPHSHAFIDLTEDFTADLFLTTLNATTSTFQFEIWENLDGNFSVSTILEKPQNMMVVGQSAFADFDGDGHMDHLLPGCEDKNCQKSTIYLVRSGMKQWVPVLQDFSNKGTLWGFVPFVDEQQPTEIPIPITLHIGDYNMDGYPDALVILKNTSGSNQQAFLLENVPCNNASCEEARRMFKVYWELTDLNQIKDAMVATFFDIYEDGILDIVVLSKGYTKNDFAIHTLKNNFEADAYFVKVIVLSGLCSNDCPRKITPFGVNQPGPYIMYTTVDANGYLKNGSAGQLSQSAHLALQLPYNVLGLGRSANFLDHLYVGIPRPSGEKSIRKQEWTAIIPNSQLIVIPYPHNVPRSWSAKLYLTPS	0.985
ADP129 (protein, bait human Fc-tagged dimer) MFPFYSCWRTGLLLLLLAVAVRESWQTEEKTCDLVGEKGKESEKELALVKRLKPLFNKSFESTVGQGSDTYIYIFRVCREAGNHTSGAGLVQINKSNGKETVVGRLNETHIFNGSNWIMLIYKGGDEYDNHCGKEQRRAVVMISCNRHTLADNFNPVSEERGKVQDCFYLFEMDSSLACSPEISHLS	1.25
ADP278 (protein, bait human Fc-tagged dimer) IQAKLIFLNFVRVPYFIDLKKPQDQGLNHTCNYYLQPEEDVTIGVWHTVPAVWWKNAQGKDQMWYEDALASSHPIILYLHGNAGTRGGDHRVELYKVLSSLGYHVVTFDYRGWGDSVGTPSERGMTYDALHVFDWIKARSGDNPVYIWGHSLGTGVATNLVRRLCERETPPDALILESPFTNIREEAKSHPFSVIYRYFPGFDWFFLDPITSSGIKFANDENVKHISCPLLILHAEDDPVVPFQLGRKLYSIAAPARSFRDFKVQFVPFHSDLGYRHKYIYKSPELPRILREFLGKSEPEHQH	0.76
ADP119 (protein, bait human Fc-tagged dimer) MDVCVRLALWLLWGLLLHQGQSLSHSHSEKATGTSSGANSEESTAAEFCRIDKPLCHSEDEKLSFEAVRNIHKLMDDDANGDVDVEESDEFLREDLNYHDPTVKHSTFHGEDKLISVEDLWKAWKSSEVYNWTVDEVVQWLITYVELPQYEETFRKLQLSGHAMPRLAVTNTTMTGTVLKMTDRSHRQKLQLKALDTVLFGPPLLTRHNHLKD	1.89
ADP356 (protein, bait human Fc-tagged dimer) MAPLPGALGVAAAAALWLLLLLLPRTRADEHEHTYQDKEEVVLWMNTVGPYHNRQETYKYFSLPFCVGSKKSISHYHETLGEALQGVELEFSGLDIKFKDDVMPATYCEIDLDKEKRDAFVYAIKNHYWYQMYIDDLPIWGIVGEADENGEDYYLWTYKKLEIGFNGNRIVDVNLTSEGKVKLVPNTKIQMSYSVKWKKSDVKFEDRFDKYLDPS	1
ADP371 (protein, bait human Fc-tagged dimer) MRRAWILLTLGLVACVSAESRAELTSDKDMYLDNSSIEEASGVYPIDDDDYASASGSGADEDVESPELTTSRPLPKILLTSAAPKVETTTLNIQNKIPAQTKSPEETDKEKVHLSDSERKMDPAEEDTNVYTEKHSDSLFKRTE	1.57
ADP349 (protein, bait human Fc-tagged dimer) MAAAGPRRSVRGAVCLHLLLTLVIFSRAGEACKKVILNVPSKLEADKIIGRVNLEECFRSADLIRSSDPDFRVLNDGSVYTARAVALSDKKRSFTIWLSDKRKQTQKEVTVLLEHQKKVSKTRHTRETVLRRAKRRWAPIPCSMQENSLGPFPLFLQQVESDAAQNYTVFYSISGRGVDKEPLNLFYIERDTGNLFCTRPVDREEYDVFDLIAYASTADGYSADLPLPLPIRVEDENDNHPVFTEAIYNFEVLESSRPGTTVGVVCATDRDEPDTMHTRLKYSILQQTPRSPGLFSVHPSTGVITTVSHYLDREVVDKYSLIMKVQDMDGQFFGLIGTSTCIITVTDSNDNAPTFRQNAYEAFVEENAFNVEILRIPIEDKDLINTANWRVNFTILKGNENGHFKISTDKETNEGVLSVVKPLNYEENRQVNLEIGVNNEAPFARDIPRVTALNRALVTVHVRDLDEGPECTPAAQYVRIKENLAVGSKINGYKAYDPENRNGNGLRYKKLHDPKGWITIDEISGSIITSKILDREVETPKNELYNITVLAIDKDDRSCTGTLAVNIEDVNDNPPEILQEYVVICKPKMGYTDILAVDPDEPVHGAPFYFSLPNTSPEISRLWSLTKVNDTAARLSYQKNAGFQEYTIPITVKDRAGQAATKLLRVNLCECTHPTQCRATSRSTGVILG	0.666
ADP355 (protein, bait human Fc-tagged dimer) MALLLLHPAFQSCLLLTLLGLWRTTPEAHASSLGAPAISAASFLQDLIHRYGEGDSLTLQQLKALLNHLDVGVGRGNVTQHVQGHRNLSTCFSSGDLFTAHNFSEQSRIGSSELQEFCPTILQQLDSRACTSENQENEENEQTEEGRPSAVEVWGYG	0.935
ADP381 (protein, bait human Fc-tagged dimer) SQEKNKNANSSPVASTTPSASATTNPASATTLDQSKAWNRYRLPNTLKPDSYRVTLRPYLTPNDRGLYVFKGSSTVRFTCKEATDVIIIHSKKLNYTLSQGHRVVLRGVGGSQPPDIDKTELVEPTEYLVVHLKGSLVKDSQYEMDSEFEGELADDLAGFYRSEYMEGNVRKVVATTQMQAADARKSFPCFDEPAMKAEFNITLIHPKDLTALSNMLPKGPSTPLPEDPNWNVTEFHTTPKMSTYLLAFIVSEFDYVEKQASNGVLIRIWARPSAIAAGHGDYALNVTGPILNFFAGHYDTPYPLPKSDQIGLPDFNAGAMENWGLVTYRENSLLFDPLSSSSSNKERVVTVIAHELAHQWFGNLVTIEWWNDLWLNEGFASYVEYLGADYAEPTWNLKDLMVLNDVYRVMAVDALASSHPLSTPASEINTPAQISELFDAISYSKGASVLRMLSSFLSEDVFKQGLASYLHTFAYQNTIYLNLWDHLQEAVNNRSIQLPTTVRDIMNRWTLQMGFPVITVDTSTGTLSQEHFLLDPDSNVTRPSEFNYVWIVPITSIRDGRQQQDYWLIDVRAQNDLFSTSGNEWVLLNLNVTGYYRVNYDEENWRKIQTQLQRDHSAIPVINRAQIINDAFNLASAHKVPVTLALNNTLFLIEERQYMPWEAALSSLSYFKLMFDRSEVYGPMKNYLKKQVTPLFIHFRNNTNNWREIPENLMDQYSEVNAISTACSNGVPECEEMVSGLFKQWMENPNNNPIHPNLRSTVYCNAIAQGGEEEWDFAWEQFRNATLVNEADKLRAALACSKELWILNRYLSYTLNPDLIRKQDATSTIISITNNVIGQGLVWDFVQSNWKKLFNDYGGGSFSFSNLIQAVTRRFSTEYELQQLEQFKKDNEETGFGSGTRALEQALEKTKANIKWVKENKEVVLQWFTENSK	0.803
ADP266 (protein, bait human Fc-tagged dimer) EEFRPEMLQGKKVIVTGASKGIGREMAYHLAKMGAHVVVTARSKETLQKVVSHCLELGAASAHYIAGTMEDMTFAEQFVAQAGKLMGGLDMLILNHITNTSLNLFHDDIHHVRKSMEVNFLSYVVLTVAALPMLKQSNGSIVVVSSLAGKVAYPMVAAYSASKFALDGFFSSIRKEYSVSRVNVSITLCVLGLIDTETAMKAVSGIVHMQAAPKEECALEIIKGGALRQEEVYYDSSLWTTLLIRNPCRKILEFLYSTSYNMDRFINK	0.642
ADP357 (protein, bait human Fc-tagged dimer) MGPPSAPPCRLHVPWKEVLLTASLLTFWNPPTTAKLTIESTPFNVAEGKEVLLLAHNLPQNRIGYSWYKGERVDGNSLIVGYVIGTQQATPGPAYSGRETIYPNASLLIQNVTQNDTGFYTLQVIKSDLVNEEATGQFHVYPELPKPSISSNNSNPVEDKDAVAFTCEPEVQNTTYLWWVNGQSLPVSPRLQLSNGNMTLTLLSVKRNDAGSYECEIQNPASANRSDPVTLNVLYGPDGPTISPSKANYRPGENLNLSCHAASNPPAQYSWFINGTFQQSTQELFIPNITVNNSGSYMCQAHNSATGLNRTTVTMITVSGSAP	0.755
ADP140 (protein, bait human Fc-tagged dimer) MELRVLLCWASLAAALEETLLNTKLETADLKWVTFPQVDGQWEELSGLDEEQHSVRTYEVCDVQRAPGQAHWLRTGWVPRRGAVHVYATLRFTMLECLSLPRAGRSCKETFTVFYYESDADTATALTPAWMENPYIKVDTVAAEHLTRKRPGAEATGKVNVKTLRLGPLSKAGFYLAFQDQGACMALLSLHLFYKKCAQLTVNLTRFPETVPRELVVPVAGSCVVDAVPAPGPSPSLYCREDGQWAEQPVTGCSCAPGFEAAEGNTKCRACAQGTFKPLSGEGSCQPCPANSHSNTIGSAVCQCRVGYFRARTDPRGAPCTTPPSAPRSVVSRLNGSSLHLEWSAPLESGGREDLTYALRCRECRPGGSCAPCGGDLTFDPGPRDLVEPWVVVRGLRPDFTYTFEVTALNGVSSLATGPVPFEPVNVTTDREVPPAVSDIRVTRSSPSSLSLAWAVPRAPSGAVLDYEVKYHEKGAEGPSSVRFLKTSENRAELRGLKRGASYLVQVRARSEAGYGPFGQEHHSQTQLDESEGWREQLAL	1.91
